Measurements: PMC11630639, “Real-time single-molecule imaging of CaMKII-calmodulin interactions” (Biophysical Journal, 2024)

B1: Venus-CaMKIIβ T287.306-307A holoenzyme (enzyme, mouse, UniProt P28652 1-542, looked up)
chain: MATTVTCTRFTDEYQLYEDIGKGAFSVVRRCVKLCTGHEYAAKIINTKKLSARDHQKLEREARICRLLKHSNIVRLHDSISEEGFHYLVFDLVTGGELFEDIVAREYYSEADASHCIQQILEAVLHCHQMGVVHRDLKPENLLLASKCKGAAVKLADFGLAIEVQGDQQAWFGFAGTPGYLSPEVLRKEAYGKPVDIWACGVILYILLVGYPPFWDEDQHKLYQQIKAGAYDFPSPEWDTVTPEAKNLINQMLTINPAKRITAHEALKHPWVCQRSTVASMMHRQEAVECLKKFNARRKLKGAILAAMLATRNFSVGRQTTAPATMSTAASGTTMGLVEQAKSLLNKKADGVKPQTNSTKNSSAITSPKGSLPPAALEPQTTVIHNPVDGIKESSDSTNTTIEDEDAKARKQEIIKTTEQLIEAVNNGDFEAYAKICDPGLTSFEPEALGNLVEGMDFHRFYFENLLAKNSKPIHTTILNPHVHVIGEDAACIAYIRLTQYIDGQGRPRTSQSEETRVWHRRDGKWQNVHFHCSGAPVAPLQ
notes: CaMKII β isoform with T to A substitutions at T287, T306 and T307; also called T287.T306.307A; phosphorylation-defective holoenzyme; source: E. coli BL21/Rosetta or BL21/C41, cotransformed with a protein phosphatase plasmid; copies: 14

Tests used:
[1] = target: wheat germ rhodamine-calmodulin (r-CAM) (UniProt P04464); assay: single-molecule two-colour TIRFM, immobilised holoenzyme; details: reference: T287A holoenzyme (T306, T307 intact); sites T306,T307
[2] = target: the molecule itself; assay: single-molecule stepwise photobleaching of Venus (TIRF microscopy); V-CaMKII held on a coverslip by GFP antibody; photobleaching steps in the Venus channel counted with a step-finder algorithm to give subunit stoichiometry (S_CaMKII)

| Molecule | other: τ+/τ− ratio [1] | binding result [2] |
| --- | --- | --- |
| CaMKIIβ (Venus-CaMKIIβ) (from UniProt P28652) T287A/T306A/T307A holoenzyme | stronger; reference 1.76 |  |
| B1 |  | binds |
